Measurements published in US20060286609A1 (BIOCHECK, published 2006).

Legend:
[1] = target: Human Id1: Histidine (human) (UniProt P41134); assay: sandwich ELISA, 5-3-coated wells, human Id1:His 0 ng/ml (blank), detected with rabbit polyclonal B-5133-HRP
[2] = target: Human Id1: Histidine (human) (UniProt P41134); assay: ELISA, coated antigen; reference human Id1
Human Id3: Histidine [3] = target: T1, Human Id3: Histidine (human, UniProt Q02535 1-119, limits assumed); assay: ELISA, coated antigen, Ab 0.000 ug/ml (blank, diluent only)
T1 construct: E. coli fusion protein (vector pGW07); also called h-Id3: His; not shown: His-tag
T1 sequence (looked up): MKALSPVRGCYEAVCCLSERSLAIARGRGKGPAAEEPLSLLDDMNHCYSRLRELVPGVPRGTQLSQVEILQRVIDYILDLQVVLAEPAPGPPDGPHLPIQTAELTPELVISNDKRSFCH

[4] = target: Human Id1: Histidine (human) (UniProt P41134); assay: sandwich ELISA, 5-3-coated wells, human Id1:His 1.0 ng/ml, detected with rabbit polyclonal B-5133-HRP
[5] = target: Human Id1: Histidine (human) (UniProt P41134); assay: ELISA, coated antigen, Ab 0.10 ug/ml
[6] = target: Human Id1: Histidine (human) (UniProt P41134); assay: ELISA, coated antigen, Ab 2.50 ug/ml
[7] = target: T2, glutathione S-transferase (GST) (UniProt P08515 1-218 = GST); assay: ELISA, coated antigen, Ab up to 10.0 ug/ml
T2 construct: Coated on wells as control for the fusion partner of the immunogen
T2 sequence (P08515 whole entry, the tested form may be a part): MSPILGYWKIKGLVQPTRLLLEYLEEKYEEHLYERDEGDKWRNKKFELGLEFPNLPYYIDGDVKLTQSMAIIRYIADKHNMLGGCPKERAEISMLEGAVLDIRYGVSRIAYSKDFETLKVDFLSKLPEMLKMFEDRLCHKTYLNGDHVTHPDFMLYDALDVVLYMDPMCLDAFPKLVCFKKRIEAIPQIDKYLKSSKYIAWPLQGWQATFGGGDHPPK
How it was run: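 Wells were coated with glutathione S-transferase and handled by an ELISA protocol. Coating buffers were 0.2 M sodium phosphate pH 6.5 and 10 mM potassium phosphate pH 7.4, with BSA/sodium azide and sucrose solutions. Antibodies were applied up to 10.0 ug/ml. Bound rabbit antibody was detected with goat anti-rabbit IgG-HRP conjugate and bound mouse antibody with goat anti-mouse IgG-HRP conjugate.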

Human Id2: Histidine [8] = target: T3, Human Id2: Histidine (human, UniProt Q02363 1-134, limits assumed); assay: ELISA, coated antigen, Ab 0.25 ug/ml
T3 construct: E. coli fusion protein (vector pGW07); also called h-Id2: His; not shown: His-tag
T3 sequence (looked up): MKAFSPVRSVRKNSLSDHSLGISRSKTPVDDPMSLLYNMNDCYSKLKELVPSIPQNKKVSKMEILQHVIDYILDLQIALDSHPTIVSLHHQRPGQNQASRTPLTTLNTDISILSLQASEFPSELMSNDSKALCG
Protocol: (§1) Incubate plates at 2-8° C. overnight (16-24 hours). [0145] 11. Shake off the BSA solution. [0146] 12. Dispense 250 μL of 2.5% sucrose solution into each well. [0147] 13. Incubate plates at 2-8° C. for 4 hours. [0148] 14. Shake off sucrose solution. [0149] 15. Dry in vacuum at room temperature overnight. Screening Method [0150] 1. Dispense 100 μL of antibody diluent, diluted rabbit polyclonal anti-Id1 into appropriate wells. […] 2. Incubate at room temperature with mechanical shaking at 750 rpm for 90 minutes. [0152] 3. Remove the incubation mixture by flicking plate content into an appropriate waste container, followed by rinsing the wells 5 times with distilled water. […] 4. Strike the wells sharply onto absorbent paper or paper towels to remove all residual water droplets. [0154] 5. Dispense 100 μL of Goat Anti-Rabbit IgG-HRP Conjugate Reagent into each well. Gently mix for 5 seconds. [0155] 6. Incubate at room temperature with mechanical shaking at 750 rpm for 90 minutes. […] 7. Repeat procedures 3 and 4. [0157] 8. Dispense 100 μL of TMB Reagent into each well. Gently mix for 5 seconds. [0158] 9. Incubate at room temperature with mechanical shaking at 750 rpm for 20 minutes. [0159] 10. Add 100 μL of Stop Solution (1N HCl) into each well. [0160] 11. Gently mix for 10 seconds to ensure a complete mixing. […] 12. Read optical density (absorbance) at 450 nm. Results from this assay were used to select the rabbit sera with the highest antibodies titer that selectively reacts with mouse Id1 or human Id1 or both.
(§2) A comparison was carried out between the reactivity of the rabbit monoclonal anti-mouse Id1, clone #BCH-1/#37-2, of this invention and the mouse monoclonal anti-mouse/human Id1 from BD Pharmingen with the following antigens prepared in Example 5: mouse Id1:His, human Id1:His, human Id2:His, human Id3:His, and GST. These antigens and protein were used to coat the wells.
(§3) Materials and methods were those described in Example 9 except (a) Pharmingen's mouse monoclonal anti-mouse Id1 was used in addition to the rabbit monoclonal anti-mouse Id1 (Example 10), and (b) goat anti-mouse IgG-HRP conjugate was used to process the wells treated with the Pharmingen monoclonal antibody and polyclonal goat anti-rabbit IgG-HRP conjugate was used to process wells treated with rabbit monoclonal anti-mouse Id1.

Mouse Id1: Histidine [9] = target: T4, Mouse Id1: Histidine (mouse, UniProt P20067-2 1-148); assay: ELISA, coated antigen, Ab 0.25 ug/ml
T4 construct: E. coli fusion protein (vector pGW07); also called m-Id1-His; not shown: His-tag
T4 sequence: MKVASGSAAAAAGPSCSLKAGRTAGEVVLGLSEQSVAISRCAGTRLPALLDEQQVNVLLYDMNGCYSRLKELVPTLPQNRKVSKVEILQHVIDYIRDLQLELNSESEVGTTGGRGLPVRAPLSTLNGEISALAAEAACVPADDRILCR
Protocol: as §1, §2, §3

Human Id3: Histidine [10] = target: T1, Human Id3: Histidine; assay: ELISA, coated antigen, Ab 0.25 ug/ml
Protocol: as §1, §2, §3

[11] = target: T2, glutathione S-transferase (GST); assay: ELISA, coated antigen, Ab 0.25 ug/ml
Protocol: as §1, §2, §3

[12] = target: Human Id1: Histidine (human) (UniProt P41134); assay: ELISA, coated antigen, Ab 1.00 ug/ml
Human Id2: Histidine [13] = target: T3, Human Id2: Histidine; assay: ELISA, coated antigen, Ab 5.00 ug/ml
Protocol: as §1, §2, §3

Mouse Id1: Histidine [14] = target: T4, Mouse Id1: Histidine; assay: ELISA, coated antigen, Ab 5.00 ug/ml
Protocol: as §1, §2, §3

Human Id3: Histidine [15] = target: T1, Human Id3: Histidine; assay: ELISA, coated antigen, Ab 5.00 ug/ml
Protocol: as §1, §2, §3

[16] = target: T2, glutathione S-transferase (GST); assay: ELISA, coated antigen, Ab 5.00 ug/ml
Protocol: as §1, §2, §3

[17] = target: Human Id1: Histidine (human) (UniProt P41134); assay: ELISA, coated antigen, Ab 0 ug/ml (blank)

Human Id1: Histidine (human), sequence (P41134 whole entry): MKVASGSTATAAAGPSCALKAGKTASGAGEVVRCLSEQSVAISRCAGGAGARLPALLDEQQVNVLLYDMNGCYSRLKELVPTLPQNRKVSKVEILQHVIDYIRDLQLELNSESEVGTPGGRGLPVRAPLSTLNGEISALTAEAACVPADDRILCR

rabbit monoclonal anti-human Id1, clone #BCH-2/#5-3 (antibody)
A450 [1]: 0.046 A450
Cross-reactivity (%) [2]: 100%
A450 (Human Id3: Histidine [3]): 0.052 A450
A450 [4]: 0.124 A450

rabbit monoclonal anti-mouse/human Id1, clone #BCH-1/#195-14 (antibody)
A450 (Human Id3: Histidine [3]): 0.049 A450

B1: rabbit monoclonal anti-mouse Id1, clone #BCH-1/#37-2 (antibody, V domains shown)
VH: QSVEESGGRLVTPGTPLTLTCKVSGFDINSYAMDWFRQAPGKGLEWIGMMSTRGNTYYTSWAKGRFTISKTSSTTVDLKMTSLTTEDTATYFCARGGLWGPGTLVTVSS
VL: RVLTQTASPVSAAVGGTVTINCQASQSVYNGNRLGWYQLKPGQSPKELIHDASTLASGVPSRFRGSGSGTQFTLTINDVQCDDAATYYCVGSYACSTGDCNVFGGGTEVVVK
notes: Rabbit IgG from hybridoma, Protein G purified; also called m Id1 MoAb 37-2; Rabbit Monoclonal Anti-Mouse Id1 (#37-2)
A450 [5]: 0.061 A450
A450 [6]: 0.132 A450
binding result [7]: no binding
A450 (Human Id2: Histidine [8]): 0.049 A450
A450 (Mouse Id1: Histidine [9]): 2 A450
A450 (Human Id3: Histidine [10]): 0.047 A450
A450 [11]: 0.051 A450
A450 [12]: 0.113 A450
A450 (Human Id2: Histidine [13]): 0.083 A450
A450 (Mouse Id1: Histidine [14]): 3.26 A450
A450 (Human Id3: Histidine [15]): 0.091 A450
A450 [16]: 0.086 A450
A450 [17]: 0.047 A450
